Assay results published in patent publication US20160272693A1 (ZEALAND PHARMA A S, published 2016).
*1 amine or outer side, *2 acyl side, *3 side chain or, on linkers, in order; H or OH if unused. Bridges are numbered along the chain shown (N, C = ends). [ ]: non-standard residue; d: D form. The star is where a group is joined. C20 diacid = O=C(O)CCCCCCCCCCCCCCCCCCC(=O)*; γGlu = O=C(O)[C@H](CCC(=O)[*:2])N[*:1]; Hyp = O=C(O)[C@@H]1C[C@@H](O)CN1; NMeI = CC[C@H](C)[C@H](NC)C(=O)O; Aad = N[C@@H](CCCC(=O)O)C(=O)O; Sar = CNCC(=O)O

B1: [19CD]-isoGlu-R-C( )-QTAT-C( )-ATERLA-Aad-FLQRSSF-Gly(Me)-A-Ile(Me)-LSSTEVGSNTP-NH2 (Compd. 93) (peptide)
peptide: {C20 diacid}-[γGlu]RCQTATCATERLA[Aad]FLQRSSF[Sar]A[NMeI]LSSTEVGSNTP-NH2
modifications: disulfide 3-8
SMILES: CC[C@H](C)[C@@H](C(=O)N[C@@H](CC(C)C)C(=O)N[C@@H](CO)C(=O)N[C@@H](CO)C(=O)N[C@H](C(=O)N[C@@H](CCC(=O)O)C(=O)N[C@H](C(=O)NCC(=O)N[C@@H](CO)C(=O)N[C@@H](CC(N)=O)C(=O)N[C@H](C(=O)N1CCC[C@H]1C(N)=O)[C@@H](C)O)C(C)C)[C@@H](C)O)N(C)C(=O)[C@H](C)NC(=O)CN(C)C(=O)[C@H](Cc1ccccc1)NC(=O)[C@H](CO)NC(=O)[C@H](CO)NC(=O)[C@H](CCCNC(=N)N)NC(=O)[C@H](CCC(N)=O)NC(=O)[C@H](CC(C)C)NC(=O)[C@H](Cc1ccccc1)NC(=O)[C@H](CCCC(=O)O)NC(=O)[C@H](C)NC(=O)[C@H](CC(C)C)NC(=O)[C@H](CCCNC(=N)N)NC(=O)[C@H](CCC(=O)O)NC(=O)[C@@H](NC(=O)[C@H](C)NC(=O)[C@@H]1CSSC[C@H](NC(=O)[C@H](CCCNC(=N)N)NC(=O)CC[C@H](NC(=O)CCCCCCCCCCCCCCCCCCC(=O)O)C(=O)O)C(=O)N[C@@H](CCC(N)=O)C(=O)N[C@@H]([C@@H](C)O)C(=O)N[C@@H](C)C(=O)N[C@@H]([C@@H](C)O)C(=O)N1)[C@@H](C)O
B2: [19CD]-isoGlu-R-C( )-QTAT-C( )-ATDRLAHFLQRSSF-Gly(Me)-A-Ile(Me)-LSSTEVGSNTP-NH2 (Compd. 92) (peptide)
peptide: {C20 diacid}-[γGlu]RCQTATCATDRLAHFLQRSSF[Sar]A[NMeI]LSSTEVGSNTP-NH2
modifications: disulfide 3-8
SMILES: CC[C@H](C)[C@@H](C(=O)N[C@@H](CC(C)C)C(=O)N[C@@H](CO)C(=O)N[C@@H](CO)C(=O)N[C@H](C(=O)N[C@@H](CCC(=O)O)C(=O)N[C@H](C(=O)NCC(=O)N[C@@H](CO)C(=O)N[C@@H](CC(N)=O)C(=O)N[C@H](C(=O)N1CCC[C@H]1C(N)=O)[C@@H](C)O)C(C)C)[C@@H](C)O)N(C)C(=O)[C@H](C)NC(=O)CN(C)C(=O)[C@H](Cc1ccccc1)NC(=O)[C@H](CO)NC(=O)[C@H](CO)NC(=O)[C@H](CCCNC(=N)N)NC(=O)[C@H](CCC(N)=O)NC(=O)[C@H](CC(C)C)NC(=O)[C@H](Cc1ccccc1)NC(=O)[C@H](Cc1c[nH]cn1)NC(=O)[C@H](C)NC(=O)[C@H](CC(C)C)NC(=O)[C@H](CCCNC(=N)N)NC(=O)[C@H](CC(=O)O)NC(=O)[C@@H](NC(=O)[C@H](C)NC(=O)[C@@H]1CSSC[C@H](NC(=O)[C@H](CCCNC(=N)N)NC(=O)CC[C@H](NC(=O)CCCCCCCCCCCCCCCCCCC(=O)O)C(=O)O)C(=O)N[C@@H](CCC(N)=O)C(=O)N[C@@H]([C@@H](C)O)C(=O)N[C@@H](C)C(=O)N[C@@H]([C@@H](C)O)C(=O)N1)[C@@H](C)O
B3: [19CD]-isoGlu-R-C( )-QTAT-C( )-ATDRLA-Aad-FLQRF-Gly(Me)-A-Ile(Me)-LSSTEVGSNT-Hyp-NH2 (Compd. 95) (peptide)
peptide: {C20 diacid}-[γGlu]RCQTATCATDRLA[Aad]FLQRF[Sar]A[NMeI]LSSTEVGSNT[Hyp]-NH2
modifications: disulfide 3-8
SMILES: CC[C@H](C)[C@@H](C(=O)N[C@@H](CC(C)C)C(=O)N[C@@H](CO)C(=O)N[C@@H](CO)C(=O)N[C@H](C(=O)N[C@@H](CCC(=O)O)C(=O)N[C@H](C(=O)NCC(=O)N[C@@H](CO)C(=O)N[C@@H](CC(N)=O)C(=O)N[C@H](C(=O)N1C[C@H](O)C[C@H]1C(N)=O)[C@@H](C)O)C(C)C)[C@@H](C)O)N(C)C(=O)[C@H](C)NC(=O)CN(C)C(=O)[C@H](Cc1ccccc1)NC(=O)[C@H](CCCNC(=N)N)NC(=O)[C@H](CCC(N)=O)NC(=O)[C@H](CC(C)C)NC(=O)[C@H](Cc1ccccc1)NC(=O)[C@H](CCCC(=O)O)NC(=O)[C@H](C)NC(=O)[C@H](CC(C)C)NC(=O)[C@H](CCCNC(=N)N)NC(=O)[C@H](CC(=O)O)NC(=O)[C@@H](NC(=O)[C@H](C)NC(=O)[C@@H]1CSSC[C@H](NC(=O)[C@H](CCCNC(=N)N)NC(=O)CC[C@H](NC(=O)CCCCCCCCCCCCCCCCCCC(=O)O)C(=O)O)C(=O)N[C@@H](CCC(N)=O)C(=O)N[C@@H]([C@@H](C)O)C(=O)N[C@@H](C)C(=O)N[C@@H]([C@@H](C)O)C(=O)N1)[C@@H](C)O

Molecular target: T1, human amylin receptor 3 (hAMYR3), hCTR2 co-expressed with human receptor activity modifying protein 3 (hRAMP3) (human, UniProt P30988 25-474; O60896 24-148)
T1 sequence (looked up) 1: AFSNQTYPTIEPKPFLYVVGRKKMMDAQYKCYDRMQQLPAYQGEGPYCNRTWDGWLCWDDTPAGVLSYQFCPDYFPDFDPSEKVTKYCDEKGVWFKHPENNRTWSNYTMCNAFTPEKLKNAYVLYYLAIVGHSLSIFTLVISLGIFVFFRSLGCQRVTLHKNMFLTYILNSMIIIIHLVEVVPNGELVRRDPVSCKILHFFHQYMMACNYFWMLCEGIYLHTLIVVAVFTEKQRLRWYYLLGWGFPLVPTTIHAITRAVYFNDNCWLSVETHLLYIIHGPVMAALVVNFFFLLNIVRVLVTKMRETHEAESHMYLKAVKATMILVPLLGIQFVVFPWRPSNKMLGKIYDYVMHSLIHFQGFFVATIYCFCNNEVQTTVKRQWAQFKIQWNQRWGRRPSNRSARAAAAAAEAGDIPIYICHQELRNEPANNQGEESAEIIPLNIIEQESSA
T1 sequence (looked up) 2: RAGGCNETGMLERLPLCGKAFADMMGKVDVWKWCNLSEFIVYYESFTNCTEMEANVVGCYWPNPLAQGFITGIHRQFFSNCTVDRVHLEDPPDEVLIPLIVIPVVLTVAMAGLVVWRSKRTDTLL
Assay: cell-based or functional assay

Binder	hAMYR3 EC50 (nM); cAMP induction [nM]
B1	0.43
B2	0.22
B3	0.2
